One protein from patent US9320760B2, “Compositions and methods of use of compounds to increase cancer patient survival time” (BioNumerik Pharmaceuticals, Inc., priority 2008, dated 2016) can be followed below.

Substrate in the data set: O=S(=O)(O)CCSSCCS(=O)(=O)O
The data set can be described thus: purified protein, by the assay type. To be noted: pH 7.0; 25.0 °C.

B1: Thioredoxin Reductase + Thioredoxin (Bos taurus) (protein)
chain: MVKQIESKYAFQEALNSAGEKLVVVDFSATWCGPCKMIKPFFHSLSEKYSNVVFLEVDVDDCQDVAAECEVKCMPTFQFFKKGQKVGEFSGANKEKLEATINELI
As for B1, the Km worked out at 72 µM.

By Km is commonly meant the substrate concentration at which the rate is half of its maximum.
